We go through 20 molecules from patent publication US7053177B1, “Random peptides that bind to gastro-intestinal tract (GIT) transport receptors and related methods” (Cytogen Corporation, priority 1997, dated 2006).

Ends that are not written are not given here.

In data set [1] the test system is rat gastro-intestinal tract (closed loop). The experiment in a line: Transport of preselected phage libraries in rat closed loop, detected by oligonucleotide hybridization/autoradiography. As to conditions: in words. As for the experimental part: Four preselected phage libraries, GI-D2H, GI-hSI, GI-HPT1 and GI-hPEPT1, were constructed by pooling phage previously selected by screening random phage display libraries D38 and DC43 using the HPT1, HPEPT1, D2H and hSI receptor or binding sites located in the GIT.
In particular, phages selected in vitro to each receptor or binding site located in the GIT were amplified in E. coli, PEG-precipitated, resuspended in TBS and the titer of each phage sample was determined by plaquing in E. coli as described above. […] Using the in situ loop model described above, 0.5 ml of preselected phage library solution was injected into the tied-off portion of the duodenum/jejunum. Blood was collected into heparinized tubes from the portal vein at 0, 15, 30, 45 and 60 minutes. A blood sample was taken from the systemic circulation at the end of the experiment. Similarly, the portion of the duodenum/jejunum used for phage injection was taken at the end of the experiment.
Thirty microliters of the collected portal blood (neat and 10^−2, 10^−1, 10^−6 dilutions) was added to 30 μl E. coli K91Kan cells (overnight culture) and incubated at 37° C. for 10 min. Subsequently, 3 ml of top agarose was added and the samples were plated for plaques. One hundred microliters of the collected portal blood was added to 100 μl of E. coli K91Kan. Five milliliters of LB medium was then added and the samples were incubated at 37° C. overnight in a rotating microbial incubator. The E. coli was removed by centrifugation and the amplified phage supernatant samples were either titered directly or were PEG-precipitated, resuspended in TBS and titered. Following titration of the amplified phage, samples containing phage from each set of animals were combined, adjusting the titer of each sample to the same titer, and were plated for plaques on LB agar lates (22 cm^2 square plates). Either 12,000 or 24,000 phage were lated for plaques.
Thirty microliters of the collected systemic blood (neat and 10^−2, 10^−1, 10^−6 dilutions) was added to E. coli K91Kan cells, incubated at 37° C. for 10 min. Three ml of top agarose was then added and the samples were plated for plaques. One hundred microliters of the collected systemic blood was added to 100 μl of E. coli K91Kan, incubated at 37° C. for 10 min. Five milliliters of LB medium was then added and the samples were incubated at 37° C. overnight in a rotating microbial incubator. The E. coli was removed by centrifugation and the amplified phage supernatant samples were either titered directly or were PEG-precipitated, resuspended in TBS and titered. Following titration of the amplified phage, samples containing phage from each set of animals were combined, adjusting the titer of each sample to the same titer, and were plated for plaques on LB agar plates (22 cm^2 square plates). Either 12,000 or 24,000 phage were plated for plaques.
The intestinal tissue portion used in each closed loop was excised. […] Alternatively, the tissue (in PBS supplemented with protease inhibitors) was homogenized in an Ultra Thorex homogenizer, washed 3 times in PBS containing protease inhibitors and resuspended in PBS containing protease inhibitors (Int-G samples). In each case, serial dilutions (neat and 10^−2, 10^−4, 10^−6 dilutions) of the tissue homogenate was titered in E. coli.
The phage amplified from the portal blood, systemic blood and intestinal tissue was plated for plaques. […] The filters were air-dried, and the DNA was cross-linked to the filter (UV crosslinking: 2 min, high setting). The filters were incubated in pre-hybridization buffer (6×SSC, 5× Denhardt's solution, 0.1% SDS, […] yeast tRNA) at 40° C.–45° C. for at least 60 min.
Synthetic oligonucleotides, (22-mers), complimentary to regions coding for the receptor or binding sites used to create the preselected phage library, were synthesized (see Table 14 below).

The target of data set [2] is bovine serum albumin (bovine) (UniProt P02769). The experiment in a line: phage ELISA on coated BSA.
bovine serum albumin (bovine), sequence (P02769 25-607 limits assumed): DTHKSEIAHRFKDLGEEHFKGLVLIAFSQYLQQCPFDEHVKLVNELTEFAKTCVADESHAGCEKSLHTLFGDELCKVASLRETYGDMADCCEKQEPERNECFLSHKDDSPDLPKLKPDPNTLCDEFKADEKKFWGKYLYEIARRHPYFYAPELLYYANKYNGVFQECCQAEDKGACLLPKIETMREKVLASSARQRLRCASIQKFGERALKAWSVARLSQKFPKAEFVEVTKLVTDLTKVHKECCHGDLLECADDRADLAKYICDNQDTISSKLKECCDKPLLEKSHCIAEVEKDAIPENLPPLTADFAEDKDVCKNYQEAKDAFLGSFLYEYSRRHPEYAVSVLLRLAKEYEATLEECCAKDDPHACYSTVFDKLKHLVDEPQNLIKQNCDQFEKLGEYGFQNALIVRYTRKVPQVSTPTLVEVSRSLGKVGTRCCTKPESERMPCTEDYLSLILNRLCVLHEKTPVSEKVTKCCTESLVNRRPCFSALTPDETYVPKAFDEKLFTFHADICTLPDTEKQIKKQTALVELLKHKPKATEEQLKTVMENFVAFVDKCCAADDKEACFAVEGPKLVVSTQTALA
Data set [3] concerns the target T1, recombinant hPEPT1 receptor domain (human PEPT1, amino acid residues 391-571), His-tag fusion protein (human) (UniProt P46059).
T1 sequence: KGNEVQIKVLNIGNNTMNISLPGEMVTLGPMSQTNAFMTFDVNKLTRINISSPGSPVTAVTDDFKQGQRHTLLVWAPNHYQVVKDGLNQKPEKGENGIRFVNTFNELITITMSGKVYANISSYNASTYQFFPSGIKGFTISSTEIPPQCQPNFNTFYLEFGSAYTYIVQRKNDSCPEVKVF
Briefly: phage ELISA on coated hPEPT1.

Data set [4] addresses T1, recombinant hPEPT1 receptor domain (human PEPT1, amino acid residues 391-571), His-tag fusion protein (human). The experiment in a line: phage ELISA, OD on hPEPT1 over OD on BSA. A general note: ELISA stands for enzyme-linked immunosorbent assay.
In data set [5] the target is T2, recombinant hPEPT1 receptor domain (human PEPT1, amino acid residues 391-571), His-tag fusion protein (human, UniProt P46059 391-571).
T2 construct: purified under denaturing conditions; coated on plates
T2 sequence: T1 sequence
Briefly: phage ELISA on coated hPEPT1. As for the experimental part: (§1) 6.6. Receptor ELISA Procedure 96 well plates were coated overnight with GIT receptor, BSA and, optionally, IDE (insulin degrading enzyme, an irrelevant His-fusion protein)or hTF. The plates were blocked for one hour with 0.5% BSA-PBS. After clarification, the amplified phage were diluted 1:100 in 1% BSA plus 0.05% Tween 20 in PBS and added to the plates. Following incubation of the plates on a rotator for 1 to 2 hours, the plates were washed 5 times with 1% BSA plus 0.05% Tween 20 in PBS. […] After the plates were washed 5 times, as described above, TMB substrate was added to the wells. The plates were read at 650 nm absorbance.

Data set [6] concerns the target T2, recombinant hPEPT1 receptor domain …. Briefly: phage ELISA, OD on hPEPT1 over OD on BSA. As for the experimental part: as §1

As for “STPPSREAYSRPYSVDSDSDTNAKHSSHNRRLRTRSRPN (not fully specified) [PAX2]”, the “Presence in the portal or systemic circulation” value in data set [1] (HPT1 pool, PAX2 used at 4x concentration) was “found in the portal and systemic circulation”. Also, in data set [1] (hPEPT1 pool), the “Binding to / presence in the intestine samples” value is given as “not found” and the “Presence in the portal circulation” value is reported as “found”.

The molecule RTFENDGLGVGRSIQKKSDRWYASHNIRSHFASMSPAGK (peptide, not shown: large carriers) [phage PAX14] returned an OD in data set [2] of 0.139 OD 650 nm.

On to RPKNVADAYSSQDGAAAEETSHASNAARKSPKHKPLRRP (peptide, not shown: large carriers, also: displayed as N-terminal pIII fusion on M13 phage) [phage 5PAX3], for which the OD in data set [3] worked out at 0.173 OD 650 nm; in data set [2] it was 0.04 OD 650 nm. Further, the PEPT1/BSA in data set [4] is 4.

B1: phage PAX45 (peptide)
peptide: SFQVYPDHGLERHALDGTGPLYAMPGRWIRARPQNRDRQ
modifications: also: displayed as N-terminal pIII fusion on M13 phage
notes: M13 phage displaying this insert as N-terminal pIII fusion; whole phage in the ELISA; not shown: M13 phage particle / pIII display carrier (and vector flanks)
As to B1, the OD amounted to 0.419 OD 650 nm in data set [5] and 0.081 OD 650 nm in data set [2]. Also, the PEPT1/BSA in data set [6] is 5 ratio.

On to RWPSVGYKGNGSDTIDVHSNDASTKRSLIYNHRRPLFP (peptide, not shown: large carriers) [phage PAX9], for which the OD in data set [3] is 0.312 OD 650 nm; in data set [2], 0.079 OD 650 nm. In addition, the PEPT1/BSA in data set [4] is 4.

B2: phage PAX43 (peptide, not shown: large carriers)
peptide: RWCEKHKFTAARCSAGAGFERDASRPPQPAHRDNTNRNA
modifications: cysteine pairing not given here; also: displayed as N-terminal pIII fusion on M13 phage
B2: the OD in data set [3] amounted to 0.345 OD 650 nm; in data set [2] it was 0.069 OD 650 nm. In addition, the PEPT1/BSA in data set [4] turned out to be 5.

Take SVGNDKTSRPVSFYGRVSDLWNASLMPKRTPSSKRHDDG [phage DCX45]: the OD in data set [2] came out at 0.075 OD 650 nm.

On to SWTRWGKHTHGGFVNKSPPGKNATSPYTDAQLPSDQGPP (peptide, not shown: large carriers) [phage PAX16], for which the OD in data set [2] came out at 0.171 OD 650 nm.

B3: phage PAX38 (peptide, not shown: large carriers)
peptide: SSKVSSPRDPTVPRKGGNVDYGCGHRSSARMPTSALSSITKCYT
modifications: cysteine pairing not given here; also: displayed as N-terminal pIII fusion on M13 phage
For the molecule B3, the OD is 0.292 OD 650 nm in data set [3] and 0.064 OD 650 nm in data set [2]. Further, the PEPT1/BSA in data set [4] was found to be 5.

In the case of RGSTGTAGGERSGVLNLHTRDNASGSGFKPWYPSNRGHK (peptide, not shown: large carriers, also: displayed as N-terminal pIII fusion on M13 phage) [phage 5PAX5], the OD in data set [3] stood at 0.15 OD 650 nm; in data set [2], 0.036 OD 650 nm. Besides, in data set [4], the PEPT1/BSA was 4.

B4: phage PAX40 (peptide)
peptide: RASTQGGRGVAPEFGASVLGRGCGSATYYTNSTSCKDAMGHNYS
modifications: cysteine pairing not given here; also: displayed as N-terminal pIII fusion on M13 phage
notes: as for B1
In the case of B4, the OD in data set [5] was 0.461 OD 650 nm; in data set [2] it was 0.076 OD 650 nm. In addition, the PEPT1/BSA in data set [6] came out at 6 ratio.

B5: phage PAX35 (peptide)
peptide: RSITDGGINEVDLSSVSNVLENANSHRAYRKHRPTLKRP
modifications: also: displayed as N-terminal pIII fusion on M13 phage
notes: as for B1
Consider B5, for which the results for the OD in data set [5] and in data set [2] were 0.474 OD 650 nm and 0.065 OD 650 nm, respectively. Moreover, in data set [6], the PEPT1/BSA is 7 ratio.

Consider RWGWERSPSDYDSDMDLGARRYATRTHRAPPRVLKAPLP (peptide, not shown: large carriers, also: displayed as N-terminal pIII fusion on M13 phage) [phage 5PAX7], for which the OD in data set [3] amounted to 0.171 OD 650 nm; in data set [2], 0.037 OD 650 nm. For the same molecule, the PEPT1/BSA in data set [4] was determined as 5.

In turn, RWNWTVLPATGGHYWTRSTDYHAINNHRPSIPHQHPTPI [phage DCX33] had an OD in data set [2] of 0.103 OD 650 nm.

For SSSSDWGGVPGKVVRERFKGRGCGISITSVLTGKPNPCPEPKAA [phage S22], the OD in data set [2] turned out to be 0.061 OD 650 nm.

B6: phage P90 (peptide)
peptide: SSADAEKCAGSLLWWGRQNNSGCGSPTKKHLKHRNRSQTSSSSH
modifications: cysteine pairing not given here; also: displayed as N-terminal pIII fusion on M13 phage
notes: M13 phage displaying this insert as N-terminal pIII fusion; whole phage in the ELISA; not shown: M13 pIII coat protein and phage particle (display carrier)
Consider B6, for which the OD in data set [5] amounted to 1.12 OD 650 nm; in data set [2] it was 0.107 OD 650 nm. Moreover, in data set [6], the PEPT1/BSA turned out to be 9 ratio.

B7: phage PAX46 (peptide)
peptide: SRCTDNEQCPDTGTRSRSVSNARYFSSRLLKTHAPHRP
modifications: cysteine pairing not given here; also: displayed as N-terminal pIII fusion on M13 phage
notes: as for B1
Consider B7, for which the OD in data set [5] was determined as 0.429 OD 650 nm; in data set [2] it was 0.077 OD 650 nm. Also, the PEPT1/BSA in data set [6] came to 6 ratio.

B8: phage PAX17 (peptide)
peptide: SQVDSFRNSFRWYEPSRALCHGCGKRDTSTTRIHNSPSDSYPTR
modifications: cysteine pairing not given here; also: displayed as N-terminal pIII fusion on M13 phage
notes: as for B1
For the molecule B8, the OD in data set [5] came out at 0.514 OD 650 nm; in data set [2], 0.095 OD 650 nm. Moreover, in data set [6], the PEPT1/BSA was 5 ratio.

B9: phage PAX18 (peptide)
peptide: SFLRFQSPRFEDYSRTISRLRNATNPSNVSDAHNNRALA
modifications: also: displayed as N-terminal pIII fusion on M13 phage
notes: as for B1
Turning to B9, the figures for the OD in data set [5] and in data set [2] were 0.416 OD 650 nm and 0.087 OD 650 nm, respectively. Further, the PEPT1/BSA in data set [6] came to 5 ratio.

B10: phage P31 (peptide)
peptide: SARDSGPAEDGSRAVRLNGVENANTRKSSRSNPRGRRHP
modifications: also: displayed as N-terminal pIII fusion on M13 phage
notes: as for B6
With B10, the OD is 0.807 OD 650 nm in data set [5] and 0.075 OD 650 nm in data set [2]. Also, the PEPT1/BSA in data set [6] amounted to 11 ratio.
